Substrate in this series: O=CCO
The series can be described thus: HPLC of erythrulose formation, initial velocities, Michaelis-Menten fit. The series is classed as biochemical, Escherichia coli. To be noted: 50 mM HPA, 1.36 mM ThDP, 5.1 mM MgCl2, 33 mM Tris.HCl, pH 7.0, assay 21 °C, pre-incubated 15 min at 21 °C, standard error in parentheses. The text has this: HPLC of erythrulose formation, initial velocities, Michaelis-Menten fit on WT transketolase (WT TK)

B1: WT transketolase (WT TK) (Escherichia coli K-12) (protein)
chain: MSSRKELANAIRALSMDAVQKAKSGHPGAPMGMADIAEVLWRDFLKHNPQNPSWADRDRFVLSNGHGSMLIYSLLHLTGYDLPMEELKNFRQLHSKTPGHPEVGYTAGVETTTGPLGQGIANAVGMAIAEKTLAAQFNRPGHDIVDHYTYAFMGDGCMMEGISHEVCSLAGTLKLGKLIAFYDDNGISIDGHVEGWFTDDTAMRFEAYGWHVIRDIDGHDAASIKRAVEEARAVTDKPSLLMCKTIIGFGSPNKAGTHDSHGAPLGDAEIALTREQLGWKYAPFEIPSEIYAQWDAKEAGQAKESAWNEKFAAYAKAYPQEAAEFTRRMKGEMPSDFDAKAKEFIAKLQANPAKIASRKASQNAIEAFGPLLPEFLGGSADLAPSNLTLWSGSKAINEDAAGNYIHYGVREFGMTAIANGISLHGGFLPYTSTFLMFVEYARNAVRMAALMKQRQVMVYTHDSIGLGEDGPTHQPVEQVASLRVTPNMSTWRPCDQVESAVAWKYGVERQDGPTALILSRQNLAQQERTEEQLANIARGGYVLKDCAGQPELIFIATGSEVELAVAAYEKLTAEGVKARVVSMPSTDAFDKQDAAYRESVLPKAVTARVAVEAGIADYWYKYVGLNGAIVGMTTFGESAPAELLFEEFGFTVDNVVAKAKELL
notes: full length, N-terminal His6 tag (plasmid pQR791), Ni-NTA purified, tag cleavage not mentioned; homodimer of 73-74 kDa monomers; WT expressed in E. coli XL10-Gold, variants in E. coli C321.dA.exp
As for B1, the Km is 22 (3) mM, the Vmax was determined as 4600 µM/min, the kcat was found to be 53.3 s⁻¹ and the specificity constant (kcat/Km) was 2500 M⁻¹ s⁻¹.

For orientation: Vmax means the top rate of the reaction or transport when substrate is in excess. Usually kcat stands for the maximal rate divided by the concentration of active sites. A word on the kcat/Km: it is the second-order rate constant that governs catalysis at low substrate concentration.

For the origin of these results see paper PMC11564776, “Enzyme stabilisation due to incorporation of a fluorinated non-natural amino acid at the protein surface” (Scientific Reports, 2024).
